B1: TxHE2CCSS (tat37-72 chemically cross-linked to E2.123CCSS) (other)
chain: MVPDTGNPCHTTKLLHRDSVDSAPILTAFNSSHKGRINCNSNTTPIVHLKGDANTLKSLRYRFKKHSTLYTAVSSTWHWTGHNVKHKSAIVTLTYDSEWQRDQFLSQVKIPKTITVSTGFMSI
peptide: CFITKALGISYGRKKRRQRRRPPQGSQTHQVSLSKQ
modifications: cysteine cross-linked through bismaleimidohexane (BMH) to tat37-72; 1 transport molecule per E2 repressor homodimer; cysteine coupled to bismaleimidohexane (BMH)
B2: HE2.123 (unconjugated E2.123 repressor protein) (other)
chain: MVPDTGNPCHTTKLLHRDSVDSAPILTAFNSSHKGRINCNSNTTPIVHLKGDANTLKCLRYRFKKHCTLYTAVSSTWHWTGHNVKHKSAIVTLTYDSEWQRDQFLSQVKIPKTITVSTGFMSI
B3: JB106 (other)
chain: MYGRKKRRQRRRPPDTGNPCHTTKLLHRDSVDSAPILTAFNSSHKGRINCNSNTTPIVHLKGDANTLKCLRYRFKKHCTLYTAVSSTWHWTGHNVKHKSAIVTLTYDSEWQRDQFLSQVKIPKTITVSTGFMSI

This assay has as its target full-length HPV-16 E2 protein (E2 transactivator expressed from plasmid pAHE2) (human papillomavirus strain 16 (HPV-16), UniProt P03120). Briefly: cell-based or functional assay.
With B1, the “% repression (E2 repression assay, COS7 cells, without chloroquine)” value was 69.4 % repression.
To B2 belongs 0.3 % repression; to B3, 94.3 % repression.

The record behind these values is patent publication US5804604, “Tat-derived transport polypeptides and fusion proteins” (Biogen, Inc., dated 1998).
